Laboratory results: US8067187 (CROSSBETA BIOSCIENCES B V, dated 2011)

T1: human factor XII from plasma (Calbiochem) (human, UniProt P00748 20-615)
T1 construct: also called FXII
T1 sequence (looked up): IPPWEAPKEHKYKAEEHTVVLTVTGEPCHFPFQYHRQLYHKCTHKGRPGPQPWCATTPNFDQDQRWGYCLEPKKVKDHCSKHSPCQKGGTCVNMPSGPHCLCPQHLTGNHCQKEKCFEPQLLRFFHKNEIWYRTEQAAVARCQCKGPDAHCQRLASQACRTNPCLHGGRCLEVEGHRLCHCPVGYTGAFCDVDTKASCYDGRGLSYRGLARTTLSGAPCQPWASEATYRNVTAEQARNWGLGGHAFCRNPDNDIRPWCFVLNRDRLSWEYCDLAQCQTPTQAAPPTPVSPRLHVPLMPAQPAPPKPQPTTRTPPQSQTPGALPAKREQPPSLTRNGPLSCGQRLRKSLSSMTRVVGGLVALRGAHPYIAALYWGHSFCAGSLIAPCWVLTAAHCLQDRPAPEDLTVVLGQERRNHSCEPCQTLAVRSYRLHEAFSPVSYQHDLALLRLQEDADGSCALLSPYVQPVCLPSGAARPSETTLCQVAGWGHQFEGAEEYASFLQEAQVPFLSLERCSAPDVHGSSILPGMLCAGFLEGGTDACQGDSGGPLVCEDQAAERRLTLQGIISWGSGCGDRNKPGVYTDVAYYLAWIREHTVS


Tests used:
[1] = biological target: T1, human factor XII from plasma …; experiment: ELISA, immobilized factor XII overlaid with a concentration series of β2GPI
[2] = biological target: T2, anti-β2GPI auto-antibodies purified from plasma of patients with the Anti-phospholipid syndrome; experiment: competition ELISA: patient anti-β2GPI auto-antibodies with a β2GPI series in solution on immobilized plasma β2GPI
T2 construct: Polyclonal mixture; also called patient antibodies
Procedure: C. […] Eluted fractions are analyzed on Western blot after SDS-PA electrophoresis. […] Anti-β₂GPI auto-antibodies were purified from plasma of patients with the autoimmune disease Anti-phospholipid syndrome.

[3] = biological target: T3, tissue-type plasminogen activator (tPA, Actilyse, Boehringer-Ingelheim) (human, UniProt P00750 36-562); experiment: ELISA, immobilized tPA overlaid with a concentration series of β2GPI
T3 construct: Commercial product; also called recombinant human tPA
T3 sequence (P00750 36-562 limits assumed): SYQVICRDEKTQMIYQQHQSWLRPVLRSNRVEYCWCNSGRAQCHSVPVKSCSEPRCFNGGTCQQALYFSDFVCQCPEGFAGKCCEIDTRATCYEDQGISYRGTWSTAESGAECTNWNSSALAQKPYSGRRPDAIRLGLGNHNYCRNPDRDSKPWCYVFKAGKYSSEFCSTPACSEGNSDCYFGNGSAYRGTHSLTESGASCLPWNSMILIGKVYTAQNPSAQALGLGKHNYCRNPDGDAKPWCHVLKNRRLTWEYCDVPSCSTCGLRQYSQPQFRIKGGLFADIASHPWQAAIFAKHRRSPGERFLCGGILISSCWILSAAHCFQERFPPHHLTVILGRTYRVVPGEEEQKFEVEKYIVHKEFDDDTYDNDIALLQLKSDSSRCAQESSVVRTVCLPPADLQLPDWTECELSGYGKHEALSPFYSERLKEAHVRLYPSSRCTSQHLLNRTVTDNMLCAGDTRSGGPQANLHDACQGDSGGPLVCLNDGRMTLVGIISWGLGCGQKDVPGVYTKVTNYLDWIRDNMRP

[4] = biological target: T3, tissue-type plasminogen activator (tPA, …); experiment: tPA binding (data not shown)

Kd [1]	IC50 (read off the curve) [2]	Kd [3]	binding result [4]	Binder
0.02 µM	~5 mg/L	0.051 µM	–	recombinant human β2-glycoprotein I (other, UniProt P02749 20-345, looked up, also called recombinant β2GPI; rβ2GPI) GRTCPKPDDLPFSTVVPLKTFYEPGEEITYSCKPGYVSRGGMRKFICPLTGLWPINTLKCTPRVCPFAGILENGAVRYTTFEYPNTISFSCNTGFYLNGADSAKCTEEGKWSPELPVCAPIICPPPSIPTFATLRVYKPSAGNNSLYRDTAVFECLPQHAMFGNDTITCTTHGNWTKLPECREVKCPFPSRPDNGFVNYPAKPTLYYKDKATFGCHDGYSLDGPEEIECTKLGNWSAMPSCKASCKVPVKKATVVYQGERVKIQEKFKNGMLHGDKVSFFCKNKEKKCSYTEDAQCIDGTIEVPKCFKEHSSLAFWKTDASDVKPC
–	–	–	binds	KRLEVDIDIGIRS (Preparation with cross-β structure; also called amyloid FP13 K157G) [amyloid fibrin peptide FP13 K157G]
